Source: patent publication US20100168025A1 (TEXAS A AND M UNIVERSITY SYSTEM, published 2010)

Legend:
[1] = target: A5 domain (immobilized acceptor on the IAsys biosensor) (UniProt P08648); assay: optical biosensor (IAsys), A5 immobilized, Kd = koff/kon
[2] = target: T1, recombinant α5β1 integrin (immobilized, ELISA) (UniProt P08648 42-995; P05556 21-728); assay: ELISA, DV on immobilized recombinant α5β1 integrin
T1 construct: also called a5b1 integrin

[3] = target: A5 domain (immobilized acceptor on the IAsys biosensor) (UniProt P08648); assay: optical biosensor (IAsys), A5 immobilized, free DV 8.0×10^-8 to 4.0×10^-7 M, global fit

T1 sequence (P08648 42-995, chain 1 of 2): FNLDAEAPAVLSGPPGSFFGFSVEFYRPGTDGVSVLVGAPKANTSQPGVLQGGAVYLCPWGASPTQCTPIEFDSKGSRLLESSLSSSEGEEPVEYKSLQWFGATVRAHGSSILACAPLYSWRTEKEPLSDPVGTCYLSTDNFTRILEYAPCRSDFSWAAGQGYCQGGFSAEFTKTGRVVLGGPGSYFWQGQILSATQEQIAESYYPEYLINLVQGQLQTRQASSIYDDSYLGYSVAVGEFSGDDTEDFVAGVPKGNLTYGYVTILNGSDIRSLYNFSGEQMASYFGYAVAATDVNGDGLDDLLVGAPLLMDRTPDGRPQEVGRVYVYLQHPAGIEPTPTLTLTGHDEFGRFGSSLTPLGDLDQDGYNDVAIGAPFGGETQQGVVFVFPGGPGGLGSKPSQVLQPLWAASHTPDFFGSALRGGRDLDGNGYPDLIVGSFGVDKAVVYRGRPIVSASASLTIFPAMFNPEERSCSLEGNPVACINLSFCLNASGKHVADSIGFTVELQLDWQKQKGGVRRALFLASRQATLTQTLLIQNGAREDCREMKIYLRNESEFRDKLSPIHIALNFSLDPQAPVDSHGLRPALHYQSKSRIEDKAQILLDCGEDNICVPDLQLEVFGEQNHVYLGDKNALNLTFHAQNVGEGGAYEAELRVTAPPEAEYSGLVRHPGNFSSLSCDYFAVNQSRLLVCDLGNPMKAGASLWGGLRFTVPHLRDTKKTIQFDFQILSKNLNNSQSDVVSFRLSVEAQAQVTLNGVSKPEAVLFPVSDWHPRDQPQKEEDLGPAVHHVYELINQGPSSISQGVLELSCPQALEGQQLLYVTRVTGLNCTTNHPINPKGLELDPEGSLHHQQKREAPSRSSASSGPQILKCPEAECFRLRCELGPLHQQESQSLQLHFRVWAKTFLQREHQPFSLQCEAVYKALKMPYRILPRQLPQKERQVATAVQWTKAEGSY
T1 sequence (P05556 21-728, chain 2 of 2): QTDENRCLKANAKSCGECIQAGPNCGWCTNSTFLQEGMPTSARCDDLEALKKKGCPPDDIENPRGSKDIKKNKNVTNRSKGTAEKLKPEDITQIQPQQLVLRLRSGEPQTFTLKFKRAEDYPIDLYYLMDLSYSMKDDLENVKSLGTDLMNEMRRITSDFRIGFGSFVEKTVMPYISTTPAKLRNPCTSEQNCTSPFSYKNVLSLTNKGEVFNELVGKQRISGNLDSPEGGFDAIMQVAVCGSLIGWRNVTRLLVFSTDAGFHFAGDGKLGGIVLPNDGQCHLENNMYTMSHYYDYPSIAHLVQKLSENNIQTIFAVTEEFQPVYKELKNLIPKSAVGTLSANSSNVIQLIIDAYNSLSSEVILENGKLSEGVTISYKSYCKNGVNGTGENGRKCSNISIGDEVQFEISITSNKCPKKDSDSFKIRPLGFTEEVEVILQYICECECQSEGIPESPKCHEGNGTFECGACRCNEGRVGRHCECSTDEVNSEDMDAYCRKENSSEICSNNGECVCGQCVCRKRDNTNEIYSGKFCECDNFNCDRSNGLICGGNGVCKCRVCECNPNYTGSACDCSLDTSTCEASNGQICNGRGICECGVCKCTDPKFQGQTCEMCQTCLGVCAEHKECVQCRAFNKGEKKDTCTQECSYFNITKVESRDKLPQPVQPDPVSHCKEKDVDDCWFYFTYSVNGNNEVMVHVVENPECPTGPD

B1: perlecan Domain V (recombinant, C-terminal 6×His tag) (ligand)
chain: EIKITFRPDSADGMLLYNGQKRVPGSPTNLANRQPDFISFGLVGGRPEFRFDAGSGMATIRHPTPLALGHFHTVTLLRSLTQGSLIVGDLAPVNGTSQGKFQGLDLNEELYLGGYPDYGAIPKAGLSSGFIGCVRELRIQGEEIVFHDLNLTAHGISHCPTCRDRPCQNGGQCHDSESSSYVCVCPAGFTGSRCEHSQALHCHPEACGPDATCVNRPDGRGYTCRCHLGRSGLRCEEGVTVTTPSLSGAGSYLALPALTNTHHELRLDVEFKPLAPDGVLLFSGGKSGPVEDFVSLAMVGGHLEFRYELGSGLAVLRSAEPLALGRWHRVSAERLNKDGSLRVNGGRPVLRSSPGKSQGLNLHTLLYLGGVEPSVPLSPATNMSAHFRGCVGEVSVNGKRLDLTYSFLGSQGIGQCYDSSPCERQPCQHGATCMPAGEYEFQCLCRDGFKGDLCEHEENPCQLREPCLHGGTCQGTRCLCLPGFSGPRCQQGSGHGIAESDWHLEGSGGNDAPGQYGAYFHDDGFLAFPGHVFSRSLPEVPETIELEVRTSTASGLLLWQGVEVGEAGQGKDFISLGLQDGHLVFRYQLGSGEARLVSEDPINDGEWHRVTALREGRRGSIQVDGEELVSGRSPGPNVAVNAKGSVYIGGAPDVATLTGGRFSSGITGCVKNLVLHSARPGAPPPQPLDLQHRAQAGANTRPCPSHHHHHH
notes: domain: domain V; Secreted from transfected 293FT cells and purified on Ni beads; also called DV; endorepellin
B1 gave a Kd [1] of 160 nM, a Kd [2] of about 30 nM and a koff [3] of 0.72 s⁻¹. The kon [3] was 3.8e+06 M⁻¹ s⁻¹.
